Results on three molecules are retold here after article PMC11950179 (Nature Communications, 2025).

To fix the notation:
B2: human phosphorylase kinase β subunit (PHKB), dephosphorylated (natural protein, UniProt Q93100 1-1093, looked up)
chain: MAGAAGLTAEVSWKVLERRARTKRSGSVYEPLKSINLPRPDNETLWDKLDHYYRIVKSTLLLYQSPTTGLFPTKTCGGDQKAKIQDSLYCAAGAWALALAYRRIDDDKGRTHELEHSAIKCMRGILYCYMRQADKVQQFKQDPRPTTCLHSVFNVHTGDELLSYEEYGHLQINAVSLYLLYLVEMISSGLQIIYNTDEVSFIQNLVFCVERVYRVPDFGVWERGSKYNNGSTELHSSSVGLAKAALEAINGFNLFGNQGCSWSVIFVDLDAHNRNRQTLCSLLPRESRSHNTDAALLPCISYPAFALDDEVLFSQTLDKVVRKLKGKYGFKRFLRDGYRTSLEDPNRCYYKPAEIKLFDGIECEFPIFFLYMMIDGVFRGNPKQVQEYQDLLTPVLHHTTEGYPVVPKYYYVPADFVEYEKNNPGSQKRFPSNCGRDGKLFLWGQALYIIAKLLADELISPKDIDPVQRYVPLKDQRNVSMRFSNQGPLENDLVVHVALIAESQRLQVFLNTYGIQTQTPQQVEPIQIWPQQELVKAYLQLGINEKLGLSGRPDRPIGCLGTSKIYRILGKTVVCYPIIFDLSDFYMSQDVFLLIDDIKNALQFIKQYWKMHGRPLFLVLIREDNIRGSRFNPILDMLAALKKGIIGGVKVHVDRLQTLISGAVVEQLDFLRISDTEELPEFKSFEELEPPKHSKVKRQSSTPSAPELGQQPDVNISEWKDKPTHEILQKLNDCSCLASQAILLGILLKREGPNFITKEGTVSDHIERVYRRAGSQKLWLAVRYGAAFTQKFSSSIAPHITTFLVHGKQVTLGAFGHEEEVISNPLSPRVIQNIIYYKCNTHDEREAVIQQELVIHIGWIISNNPELFSGMLKIRIGWIIHAMEYELQIRGGDKPALDLYQLSPSEVKQLLLDILQPQQNGRCWLNRRQIDGSLNRTPTGFYDRVWQILERTPNGIIVAGKHLPQQPTLSDMTMYEMNFSLLVEDTLGNIDQPQYRQIVVELLMVVSIVLERNPELEFQDKVDLDRLVKEAFNEFQKDQSRLKEIEKQDDMTSFYNTPPLGKRGTCSYLTKAVMNLLLEGEVKPNNDDPCLIS
B3: human muscle glycogen phosphorylase (PYGM) (enzyme, UniProt P11217 1-842, looked up)
chain: MSRPLSDQEKRKQISVRGLAGVENVTELKKNFNRHLHFTLVKDRNVATPRDYYFALAHTVRDHLVGRWIRTQQHYYEKDPKRIYYLSLEFYMGRTLQNTMVNLALENACDEATYQLGLDMEELEEIEEDAGLGNGGLGRLAACFLDSMATLGLAAYGYGIRYEFGIFNQKISGGWQMEEADDWLRYGNPWEKARPEFTLPVHFYGHVEHTSQGAKWVDTQVVLAMPYDTPVPGYRNNVVNTMRLWSAKAPNDFNLKDFNVGGYIQAVLDRNLAENISRVLYPNDNFFEGKELRLKQEYFVVAATLQDIIRRFKSSKFGCRDPVRTNFDAFPDKVAIQLNDTHPSLAIPELMRILVDLERMDWDKAWDVTVRTCAYTNHTVLPEALERWPVHLLETLLPRHLQIIYEINQRFLNRVAAAFPGDVDRLRRMSLVEEGAVKRINMAHLCIAGSHAVNGVARIHSEILKKTIFKDFYELEPHKFQNKTNGITPRRWLVLCNPGLAEVIAERIGEDFISDLDQLRKLLSFVDDEAFIRDVAKVKQENKLKFAAYLEREYKVHINPNSLFDIQVKRIHEYKRQLLNCLHVITLYNRIKREPNKFFVPRTVMIGGKAAPGYHMAKMIIRLVTAIGDVVNHDPAVGDRLRVIFLENYRVSLAEKVIPAADLSEQISTAGTEASGTGNMKFMLNGALTIGTMDGANVEMAEEAGEENFFIFGMRVEDVDKLDQRGYNAQEYYDRIPELRQVIEQLSSGFFSPKQPDLFKDIVNMLMHHDRFKVFADYEDYIKCQEKVSALYKNPREWTRMVIRNIATSGKFSSDRTIAQYAREIWGVEPSRQRLPAPDEAI

Data set [1] has as its target human calmodulin, δ subunit of phosphorylase kinase (human, UniProt P0DP25 1-149). Put plainly: cryo-EM structure.
Data set [2] concerns the target B3. As to the kind of experiment: cross-linking.
The data set “cryo-EM structure” concerns the molecule itself. As to the kind of experiment: cryo-EM structure.
For data set [3], the target named is T1, human muscle phosphorylase kinase α subunit (PHKA1), dephosphorylated (human, UniProt P46020 1-1223).
T1 sequence (looked up): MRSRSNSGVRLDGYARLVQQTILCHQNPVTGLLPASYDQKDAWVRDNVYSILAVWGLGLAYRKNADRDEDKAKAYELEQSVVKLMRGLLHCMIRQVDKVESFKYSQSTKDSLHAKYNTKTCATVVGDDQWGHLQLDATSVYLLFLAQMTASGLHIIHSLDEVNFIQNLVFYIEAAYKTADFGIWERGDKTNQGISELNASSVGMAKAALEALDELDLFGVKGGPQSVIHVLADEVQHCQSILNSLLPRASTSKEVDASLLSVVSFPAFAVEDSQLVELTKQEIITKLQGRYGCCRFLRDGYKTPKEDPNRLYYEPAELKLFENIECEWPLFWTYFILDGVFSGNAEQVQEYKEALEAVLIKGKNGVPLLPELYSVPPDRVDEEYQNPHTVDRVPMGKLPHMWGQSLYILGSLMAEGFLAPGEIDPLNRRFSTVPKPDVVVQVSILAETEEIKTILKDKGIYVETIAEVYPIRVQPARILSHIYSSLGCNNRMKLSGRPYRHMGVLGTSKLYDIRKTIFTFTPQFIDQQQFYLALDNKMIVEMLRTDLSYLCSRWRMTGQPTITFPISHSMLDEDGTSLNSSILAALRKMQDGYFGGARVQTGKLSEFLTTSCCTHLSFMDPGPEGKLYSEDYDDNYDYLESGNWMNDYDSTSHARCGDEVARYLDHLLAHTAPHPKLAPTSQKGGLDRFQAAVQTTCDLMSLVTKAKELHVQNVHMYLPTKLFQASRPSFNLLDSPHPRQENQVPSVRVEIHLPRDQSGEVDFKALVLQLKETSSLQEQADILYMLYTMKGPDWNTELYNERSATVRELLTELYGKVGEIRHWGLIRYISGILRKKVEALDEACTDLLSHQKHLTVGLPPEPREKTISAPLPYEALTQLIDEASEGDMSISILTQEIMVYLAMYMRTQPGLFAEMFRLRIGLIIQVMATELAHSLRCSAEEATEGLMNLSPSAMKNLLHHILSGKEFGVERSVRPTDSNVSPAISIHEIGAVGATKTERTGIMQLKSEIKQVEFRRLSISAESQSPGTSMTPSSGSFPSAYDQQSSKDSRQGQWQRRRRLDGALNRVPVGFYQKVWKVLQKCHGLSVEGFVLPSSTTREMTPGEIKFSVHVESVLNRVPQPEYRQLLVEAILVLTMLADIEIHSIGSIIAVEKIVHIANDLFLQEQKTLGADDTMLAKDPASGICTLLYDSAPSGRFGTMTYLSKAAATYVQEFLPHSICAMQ
As to the kind of experiment: cross-linking.

Data set [4] addresses B2. As to the kind of experiment: cross-linking.

B1: human muscle phosphorylase kinase γ subunit (PHKG1) (enzyme)
chain: not shown
On to B1, for which the binding result in data set [1] and in data set [2] was “binds” in each case.

As a reminder, the stoichiometry N is a count of units in the complex or per binding partner. For the molecule B2, the “stoichiometry N” value in the data set “cryo-EM structure” is 4. Consider B3, for which the binding result in data set [3] and in data set [4] was “binds” each time.
